Each block holds one binder with its values, some of them ahead of it.
What was measured:
[1] = target: p185, the human HER-2/neu (c-erbB2) proto-oncogene product (human) (UniProt P04626); test: Scatchard analysis on SK-Br-3 cells
[2] = target: H520C9sFv-hIL-2 fusion protein (human) (UniProt P60568); test: cell-based or functional assay
[3] = target: recombinant human IL-2 (human) (UniProt P60568); test: cell-based or functional assay

Ka [1]: 3.5e+08 M⁻¹
B1: murine monoclonal antibody 520C9 (antibody, from another filing, V domains shown)
VH: EIQLVQSGPELKKPGETVKISCKASGYTFANYGMNWMKQAPGKGLKWMGWINTYTGQSTYADDFKERFAFSLETSATTAHLQINNLRNEDSATYFCARRFGFAYWGQGTLVSVSA
VL: DIQMTQSPSSLSASLGERVSLTCRASQDIGNSLTWLQQEPDGTIKRLIYATSSLDSGVPKRFSGSRSGSDYSLTISSLESEDFVVYYCLQYAIFPYTFGGGTNLEIK

Ka [1]: 6.7e+07 M⁻¹
B2: proteolytically cleaved Fab fragment of 520C9 (Fab, from another filing, V domains shown)
VH: B1 VH
VL: B1 VL

50% inhibition of [^3H]-thymidine incorporation in CTLL-2 cells (Neutralization Dose 50) for the same dose of H520C9sFv-hIL-2 [2]: 0.128 µg/mL
50% inhibition of [^3H]-thymidine incorporation in CTLL-2 cells (Neutralization Dose 50) for 2 ng/ml rhIL-2 [3]: 0.076 µg/mL
B3: mouse anti-human IL-2 mAb MAB202 (antibody, from another filing, V domains shown)
VH: DVRLVESGGGLVKPGGSLKLSCAAYGFTFSSYTLAWVRQTPEKRLEWVAAIDSSSYTYSPDTVRGRFTISRDNAKNTLYLQMSSLKSEDTAMYYCTRDSNWDALDYWGQGTSVIVSS
VL: DIVMTQSQKFMSTSVGDRVSVTCKASQNVGTNVGWYQQKPGQSPKALIYSASFRYSGVPDRFTGSGSGTDFSLTISNVKSEDLAEYFCQQYYTYPYTFGGGTKLEIK

— patent publication US20020041865A1
